One assay addresses YC157-ΔbFos. The assay is described as follows: split reporter (BiFC, NanoBiT).
Another assay deals with YC157-bFos (UniProt P01100 118-210). The assay is described as follows: split reporter (BiFC, NanoBiT). The settings on record: partners not purified.
Sequence of YC157-bFos (P01100 118-210): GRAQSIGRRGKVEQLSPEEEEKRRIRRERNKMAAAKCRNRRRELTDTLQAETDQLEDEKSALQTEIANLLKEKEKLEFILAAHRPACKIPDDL

B1: YN157-bJun (domain or fragment, UniProt P05412 257-318, looked up)
chain: RKRMRNRIAASKCRKRKLERIARLEEKVKTLKAQNSELASTANMLREQVAQLKQKVMNHVNS
In the case of B1, in the assay with YC157-ΔbFos, the fluorescence-positive cell ratio amounted to 0.5%. For the same molecule, in the assay with YC157-bFos, the “percentage of fluorescent cells, fold over the negative group (YN157-bJun + YC157-ΔbFos)” value worked out at 7 fold; the “signal-to-noise ratio of all cells (against YN157-bJun + YC157-ΔbFos)” value was 33 ratio; the “signal-to-noise ratio of fluorescent cells (against YN157-bJun + YC157-ΔbFos)” value turned out to be 4 ratio.

For the origin of these results see PMC9880813 (Genomics, Proteomics & Bioinformatics, 2021).
